For the data set, the target named is Cys128 (UniProt position 128, FIDQHCSLMKV). In words: chemical modification (DTNB/Ellman labelling kinetics followed by UV-vis). Particulars: room temperature; 150 mM NaCl; 50 mM citric acid, 50 mM HEPES, 50 mM Bicine, pH adjusted with NaOH or HCl; Free (reduced) thiol form of RitR, 5 μM protein with 20 μM DTNB, no DNA. A general note: In Ellman's method for cholinesterases, released thiocholine reacts with DTNB.

One may read the pKa as the pH at which an ionisable group is half protonated. Read a low pKa as a group that gives up its proton readily.

The substance “RitR (Repressor of iron transport Regulator), orphan two-component-like response regulator (Streptococcus pneumoniae (strain R800, R6/D39 derivative))” had a pKa of 6.85.
